Substitutions are numbered along the chain they refer to. In names and notes the source's numbering stands. Entries after “also recorded” stand apart in the source; their conditions may differ.
Assays:
[1] = system: Chromobacterium violaceum ATCC-12472 biofilm; assay: MBEC (Minimal Biofilm Eradication Concentration) assay; assay type: cell-based; settings: C. violaceum ATCC-12472 biofilm
Experimental: (§1) The doses of antimicrobial agents required to eliminate bacterial biofilms are determined using the “MBEC (Minimal Biofilm Eradication Concentration) Assay TM” technique developed by Innovotech (Alberta, Canada) according to the supplier's data.
(§2) Bacterial biofilms are formed by bacterial growth in a medium and conditions adapted to the bacteria studied in the presence or absence of the lactonase SsoPox-W263I of sequence SEQ ID NO: 2.
(§3) Bacteria are pre-cultured for 6 hours in oxygenated flasks under the conditions indicated in Table 1 and then MBEC plates are plated by diluting the pre-culture to 1:1000 in the presence or absence of SsoPox-W263I lactonase at 0.5 mg/mL. After 24 hours of growth, the bacterial biofilms formed on the spikes of the MBEC plate cover are rinsed by immersion for 5 minutes in a buffer solution (Table 1). The biofilms are then immersed in a buffer solution containing antimicrobial agents (disinfectants, bactericidal or bacteriostatic antibiotics, bacteriophages, biocides) for a period of time representative of the mechanism of action of the antimicrobial agent studied (1.5 h for antiseptics, 3 h for antibiotics, 4 h for phages). After immersion in the antimicrobial agents, the bacterial biofilms were rinsed for 5 minutes in a buffer solution and then incubated for 1 hour in a nutrient medium adapted to the bacteria studied and containing detergents to detach the biofilms (Table 1). After 1 hour of incubation, the bacteria detached from the biofilm and thus present in the wells of the MBEC plate are serially diluted and plated on suitable nutrient agar to perform bacterial counts and determine the number of bacteria that survived the combined treatment of the mutated SsoPox-W263I enzyme and the antimicrobial agent (FIG. 1). The MBEC is the minimum concentration of antimicrobial agent to eradicate the bacteria in the biofilm.

[2] = system: Pseudomonas aeruginosa UCBPP-PA14 biofilm; assay: as above; assay type: cell-based; settings: for MBEC: P. aeruginosa UCBPP-PA14 biofilm; for factor of decrease of the concentration required to eliminate the biofilms in presence of SsoPox-W263I: P. aeruginosa biofilms, with vs without SsoPox-W263I
Experimental: as §1, §2, §3

P. aeruginosa biofilms = assay: Enumeration of bacteria recovered from biofilms after antiseptic or bleach treatment; assay type: cell-based, Pseudomonas aeruginosa; settings: for bacteria recovered from the biofilm: 10 mM H2O2 for 1.5 hours
Experimental: as §2, §3

[3] = system: Pseudomonas aeruginosa UCBPP-PA14 biofilm; assay: MBEC (Minimal Biofilm Eradication Concentration) assay; assay type: cell-based; settings: control sample with inactive variant SsoPox-5A8
[4] = system: CRISPR-Cas system genes cas1, cas3, csy1, csy2, csy3 and csy4 in P. aeruginosa PA14 and clinical isolates; assay: Gene expression of the CRISPR-Cas system (RT-PCR); assay type: cell-based, Pseudomonas aeruginosa; settings: vs inactive SsoPox-5A8
Experimental: (§4) FIG. 3: Expression changes of the CRISPR-Cas system. Expression of the CRISPR-Cas system genes casl, cas3, csy1, csy2, csy3 and csy4 was measured for the P. aeruginosa model strain PA14 as well as for clinical isolates from diabetic foot infections (All, B10, C5, C11, D10 and F3) and for the marine bacterium Chromobacterium violaceum CV12472. […] Error bars represent variations for 2 technical duplicates of 2 biological replicates. *p-values<0.05, *p-values<0.01, ***p-values<0.001 by Student's t-test.
(§5) After 16 hours of culture (stationary phase), the bacteria were recovered by centrifugation.
RNAs were extracted and purified with the PureLink® RNA mini kit (ThermoFisher) according to the supplier's recommendations and then treated with the TURBO DNA-free™ kit (ThermoFisher) to remove genomic DNA contamination. Samples were checked for quality by 1.5% agarose gel migration and the amount of nucleic acid was measured with a NanoDrop 2000 spectrophotometer (Thermo Scientific) at OD260 nm. Complementary DNAs (cDNAs) were synthesised using the TaqMan® Reverse Transcription Reagents kit (ThermoFisher) according to the manufacturer's recommendations. RT-PCR was then performed using the LuminoCt® SYBR® Green qPCR ReadyMix™ kit and a CFX thermocycler (Bio-Rad) and specific primer pairs. PCR amplification was performed with the following method: Denaturation for 5 minutes at 94° C., followed by 29 cycles of [1 minute at 94° C., 1 minute at 55° C., 30 seconds at 72° C.] for amplification, then a final elongation step for 7 minutes at 72° C. Sample fluorescence is measured at the end of each cycle and denaturation curves were analysed with CFX Manager™ software (Bio-Rad). Gene expression was normalised by expression of a 5S RNA housekeeping gene.

[5] = system: CRISPR-Cas system genes in Chromobacterium violaceum CV12472; assay: Gene expression of the CRISPR-Cas system (RT-PCR); assay type: cell-based; settings: C. violaceum CV12472; vs inactive SsoPox-5A8
Experimental: as §4, §5
RNAs were extracted and purified with the PureLink® RNA mini kit (ThermoFisher) according to the supplier's recommendations and then treated with the TURBO DNA-free™ kit (ThermoFisher) to remove genomic DNA contamination. Samples were checked for quality by 1.5% agarose gel migration and the amount of nucleic acid was measured with a NanoDrop 2000 spectrophotometer (Thermo Scientific) at OD260 nm. […] RT-PCR was then performed using the LuminoCt® SYBR® Green qPCR ReadyMix™ kit and a CFX thermocycler (Bio-Rad) and specific primer pairs. […] Sample fluorescence is measured at the end of each cycle and denaturation curves were analysed with CFX Manager™ software (Bio-Rad). […]

[6] = system: Pseudomonas aeruginosa PA14; assay: Susceptibility to Intesti phage cocktail; assay type: cell-based; settings: enzyme 0.5 mg/mL, phage cocktail 0 to 50% (vol/vol)
Experimental: FIG. 2: Increased susceptibility of Pseudomonas aeruginosa PA14 to Intesti phage cocktail.
as §3
The Intesti phage cocktail consists of a mixture of sterile filtrates of phages directed against Shigella flexneri (serovariants 1, 2, 3, 4, 6), Shigellasi, Proteus vulgaris, Proteus mirabilis, Enterococcus, Staphylococcus, Pseudomonas aeruginosa and excipients such as 8-hydroxyquinoline sulfate monohydrate at 0.0001 g/ml (estimated content) and is marketed by Intesti-bacteriophage, Microgen, Russia

Q: Which results are given for `CN(C)S(=O)(=O)N(SC(F)(Cl)Cl)c1ccccc1` [Preventol A4S, Dichlofluanide]?
A: MBEC ([1]; with SsoPox W263I 0.5 mg/mL): >10 µM; MBEC ([1]; without SsoPox W263I): <200 µM

Q: Which results are given for Gentamicin?
A: MBEC ([2]; with SsoPox W263I 0.5 mg/mL): 2 µg/mL; MBEC ([2]; without SsoPox W263I): 20 µg/mL; factor of decrease of the concentration required to eliminate the biofilms in presence of SsoPox-W263I [2]: 10

Q: What does the source list for `NC[C@H]1O[C@H](O[C@H]2[C@H](O)[C@@H](O[C@H]3O[C@H](CO)[C@@H](O)[C@H](N)[C@H]3O)[C@H](N)C[C@@H]2N)[C@H](N)C[C@@H]1O` [Tobramycin]?
A: MBEC ([2]; with SsoPox W263I 0.5 mg/mL): 1 µg/mL; MBEC ([2]; without SsoPox W263I): 10 µg/mL; factor of decrease of the concentration required to eliminate the biofilms in presence of SsoPox-W263I [2]: 10

Q: Which results are given for `OO` [H2O2]?
A: bacteria recovered from the biofilm (P. aeruginosa biofilms; without the lactonase): 104-105 bacterial cells; antiseptic required to completely eradicate the biofilm [3]: 100 mM; MBEC ([2]; with SsoPox W263I 0.5 mg/mL): 10 mM; MBEC ([2]; without SsoPox W263I): 100 mM; factor of decrease of the concentration required to eliminate the biofilms in presence of SsoPox-W263I [2]: 10

B1: SsoPox-W263I: mutated hyperthermophilic lactonase of Sulfolobus solfataricus (SsoPox), tryptophan at position 263 substituted by isoleucine, SEQ ID NO: 2 (protein, listed as Sulfolobus solfataricus)
chain: MRIPLVGKDSIESKDIGFTLIHEHLRVFSEAVRQQWPHLYNEDEEFRNAVNEVKRAMQFGVKTIVDPTVMGLGRDIRFMEKVVKATGINLVAGTGIYIYIDLPFYFLNRSIDEIADLFIHDIKEGIQGTLNKAGFVKIAADEPGITKDVEKVIRAAAIANKETKVPIITHSNAHNNTGLEQQRILTEEGVDPGKILIGHLGDTDNIDYIKKIADKGSFIGLDRYGLDLFLPVDKRNETTLRLIKDGYSDKIMISHDYCCTIDIGTAKPEYKPKLAPRWSITLIFEDTIPFLKRNGVNEEVIATIFKENPKKFFS
Q: What does the source list for B1?
A: decrease in number of bacteria recovered from biofilms (P. aeruginosa biofilms; 0.7 mM NaOCl and SsoPox-W263I, compared to NaOCl alone): 2 Log; bacteria recovered from the biofilm (P. aeruginosa biofilms; biofilm formed with SsoPox-W263I): no bacteria are recovered; also recorded: significantly reduces; number of bacteria recovered from the biofilm, combination vs either agent alone (P. aeruginosa biofilms; sodium hypochlorite in combination with W263I mutated lactonase): significantly reduces; number of bacteria recovered from biofilms (P. aeruginosa biofilms; without NaOCl treatment, with vs without W263I mutated lactonase): same number of bacteria; number of bacteria recovered from biofilms (P. aeruginosa biofilms; without antiseptic treatment, with vs without SsoPox-W263I): same number of bacteria; expression of CRISPR-Cas genes ([4]; P. aeruginosa PA14): completely abolished; expression of the csy1-4 genes ([4]; clinical isolate A11): significantly reduced; factor of decrease of CRISPR-Cas gene expression ([4]; clinical isolate B10): 5.5; factor of decrease of CRISPR-Cas gene expression ([4]; clinical isolate C11): 8; expression of the csy1-4 genes ([4]; clinical isolate D10): significantly reduced; factor of increase of CRISPR-Cas gene expression, on average ([4]; clinical isolate F3): 1.7; expression of the cas3 and csy2-4 genes [5]: significantly reduced; sensitivity of bacteria to Intesti phage cocktail (number of bacteria counted) [6]: more sensitive; sensitivity of bacteria to Intesti phage cocktail (number of bacteria counted) ([6]; listed as W263I mutated lactonase): satisfactory results

B2: SsoPox-5A8: inactive variant of SsoPox (V27G/P67Q/L72C/Y97S/Y99A/T177D/R223L/L226Q/L228M/W263H) (protein, UniProt Q97VT7 1-314, looked up, variant V27G P67Q L72C Y97S Y99A T177D R223L L226Q L228M W263H)
Aryldialkylphosphatase: B1 chain with V27G, P67Q, L72C, Y97S, Y99A, T177D, R223L, L226Q, L228M, I263H
Q: With B2 as the molecule, how does the “sensitivity of bacteria to Intesti phage cocktail (number of bacteria counted)” value [6] read?
A: The value was “little impacted”.
